Assay results: patent US20230118302 (published 2023)
Like-named read-outs stand apart in the source and are kept apart here.

Key:
HER2 on cells [1] = target: T1, HER2 on cells (human, UniProt P04626); test: FACS, MCF7
HER2 on cells [2] = target: T1, HER2 on cells; test: FACS, MCF7; remark: listed apart in the source
HER2 on cells [3] = target: T1, HER2 on cells; test: FACS, WI-38
CD16a V158 = CD16a V158 (human, UniProt P08637); test: SPR
HER2 ECD [4] = target: T2, HER2 ECD (human, UniProt P04626); test: SPR
HER2 ECD [5] = target: T2, HER2 ECD; test: SPR; remark: listed apart in the source

Chain of CD16a V158 (P08637 17-208 F176V): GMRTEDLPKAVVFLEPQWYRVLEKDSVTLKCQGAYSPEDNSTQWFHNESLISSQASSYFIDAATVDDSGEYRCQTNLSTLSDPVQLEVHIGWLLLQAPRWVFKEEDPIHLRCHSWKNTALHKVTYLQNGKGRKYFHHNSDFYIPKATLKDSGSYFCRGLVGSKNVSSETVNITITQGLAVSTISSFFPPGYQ

B1: v10000 (antibody)
chain 1: EVQLVESGGGLVQPGGSLRLSCAASGFTFADYTMDWVRQAPGKGLEWVGDVNPNSGGSIYNQRFKGRFTFSVDRSKNTLYLQMNSLRAEDTAVYYCARNLGPSFYFDYWGQGTLVTVSSASTKGPSVFPLAPSSKSTSGGTAALGCLVKDYFPEPVTVSWNSGALTSGVHTFPAVLQSSGLYSLSSVVTVPSSSLGTQTYICNVNHKPSNTKVDKKVEPKSCDKTHTCPPCPAPELLGGPSVFLFPPKPKDTLMISRTPEVTCVVVDVSHEDPEVKFNWYVDGVEVHNAKTKPREEQYNSTYRVVSVLTVLHQDWLNGKEYKCKVSNKALPAPIEKTISKAKGQPREPQVYVYPPSRDELTKNQVSLTCLVKGFYPSDIAVEWESNGQPENNYKTTPPVLDSDGSFALVSKLTVDKSRWQQGNVFSCSVMHEALHNHYTQKSLSLSPG
chain 2: not shown
chain 3: not shown
Kd (HER2 on cells [1]): 3.7 nM
Kd (HER2 on cells [2]): 6.8 nM
Kd (HER2 on cells [3]): 8.4 nM

B2: v7091 (antibody)
chain 1: EVQLVESGGGLVQPGGSLRLSCAASGFTFTDYTMDWVRQAPGKGLEWVADVNPNSGGSIYNQRFKGRFTLSVDRSKNTLYLQMNSLRAEDTAVYYCARNLGPSFYFDYWGQGTLVTVSSASTKGPSVFPLAPSSKSTSGGTAALGCLVKDYFPEPVTVSWNSGALTSGVHTFPAVLQSSGLYSLSSVVTVPSSSLGTQTYICNVNHKPSNTKVDKKVEPKSCDKTHTCPPCPAPELLGGPSVFLFPPKPKDTLMISRTPEVTCVVVDVSHEDPEVKFNWYVDGVEVHNAKTKPREEQYNSTYRVVSVLTVLHQDWLNGKEYKCKVSNKALPAPIEKTISKAKGQPREPQVYVYPPSRDELTKNQVSLTCLVKGFYPSDIAVEWESNGQPENNYKTTPPVLDSDGSFALVSKLTVDKSRWQQGNVFSCSVMHEALHNHYTQKSLSLSPG
chain 2: not shown
chain 3: not shown
Kd (CD16a V158): 120 nM

B3: v7148 (antibody)
chain 1: EVQLVESGGGLVQPGGSLRLSCAASGFTFTDYTMDWVRQAPGKGLEWVADVNPNSGGSIYNQRFKGRFTLSVDRSKNTLYLQMNSLRAEDTAVYYCARNLGPSFYFDYWGQGTLVTVSSASTKGPSVFPLAPSSKSTSGGTAALGCLVKDYFPEPVTVSWNSGALTSGVHTFPAVLQSSGLYSLSSVVTVPSSSLGTQTYICNVNHKPSNTKVDKKVEPKSCDKTHTCPPCPAPELLGGPSVFLFPPKPKDTLMISRTPEVTCVVVDVSHEDPEVKFNWYVDGVEVHNAKTKPREEQYNSTYRVVSVLTVLHQDWLNGKEYKCKVSNKALPAPIEKTISKAKGQPREPQVYVYPPSRDELTKNQVSLTCLVKGFYPSDIAVEWESNGQPENNYKTTPPVLDSDGSFALVSKLTVDKSRWQQGNVFSCSVMHEALHNHYTQKSLSLSPG
chain 2: not shown
chain 3: not shown
modifications: v7091 conjugated to SMCC-DM1
Kd (CD16a V158): 120 nM

B4: v10014 (antibody, V domains shown)
VH: EVQLVESGGGLVQPGGSLRLSCAASGFTFADYTMDWVRQAPGKGLEWVADVNPNSGGSIYNQRFKGRFTLSVDRSKNTLYLQMNSLRAEDTAVYYCARNLGPSFYFDYWGQGTLVTVSS
VL: DIQMTQSPSSLSASVGDRVTITCKASQDVSIGVAWYQQKPGKAPKLLIYSASYRYTGVPSRFSGSGSGTDFTLTISSLQPEDFATYYCQQYYIYPATFGQGTKVEIK
Kd (HER2 ECD [4]): 2 nM
Kd (HER2 ECD [5]): 2.1 nM
